Source: patent CN111320691A (CHENG LIANSHENG; LIU JING, dated 2020)

Assays:
[1] = target: T1, 人4-1BB (h4-1BB) antigen protein, coated on ELISA plates (human, UniProt Q07011 24-186); test: ELISA, antigen coated at 1 ug/ml, antibody 1000 to 0.24 ng/ml
T1 construct: Soluble antigen for plate coating; also called 人抗原4-1BB; 抗原人H4-1BB蛋白

[2] = target: T2, 人4-1BB on CHO-K1 cells (CHO-h4-1BB) (human, UniProt Q07011 24-255); test: FACS on CHO-h4-1BB cells, antibody 20 to 0.027 ug/ml
T2 construct: whole, on cells; also called 高表达人4-1BB的CHO-K1细胞株
T2 sequence (Q07011 24-255): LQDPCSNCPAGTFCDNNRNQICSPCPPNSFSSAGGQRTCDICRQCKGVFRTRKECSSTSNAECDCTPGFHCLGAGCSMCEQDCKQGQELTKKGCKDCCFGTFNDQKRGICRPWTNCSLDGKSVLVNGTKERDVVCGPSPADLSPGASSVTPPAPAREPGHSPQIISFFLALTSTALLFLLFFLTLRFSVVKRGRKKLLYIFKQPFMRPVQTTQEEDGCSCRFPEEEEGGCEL

T1 sequence (Q07011 24-186 limits assumed): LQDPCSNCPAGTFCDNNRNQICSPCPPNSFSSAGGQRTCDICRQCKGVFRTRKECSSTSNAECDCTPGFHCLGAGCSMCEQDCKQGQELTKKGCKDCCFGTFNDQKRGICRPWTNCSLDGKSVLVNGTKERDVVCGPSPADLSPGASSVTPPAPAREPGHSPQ

B1: 单克隆抗体HKB6 (抗人4-1BB抗体) (antibody, mouse IgG1, kappa, V domains shown)
VH: QVQLKESGPGLVAPSQSLSITCTVSGFSLTTYDISWIRQPPGKGLEWLGVIWTGGGTNYNSTFMSRLSINKDNSKSQVFLKMNSLQTDDTAIYYCVRVDYWGQGTSVTVSS
VL: DVVMTQTPLSLPVSLGDQASISCRSSQSLVHSNGNTYLHWFLQKPGQSPKLLIYKVSNRFPGVPDRFSGSGSGTDFTLKISRVEAEDLGVYFCSQNTHVPWTFGGGTKLEIKR
notes: Whole antibody from a mouse hybridoma, purified on Protein G; also called HKB6单克隆抗体
B1: binds [1]; binds [2].
